The values below come from PMC8699718, “A structurally conserved site in AUP1 binds the E2 enzyme UBE2G2 and is essential for ER-associated degradation” (PLoS Biology, 2021).

Assay [1] deals with UBE2G2. Kind of assay: CHX chase: UBE2G2 turnover in HT1080 AUP1 KO cells. It is filed as cell-based, human. The settings on record: GFP fusion transfected with MYC-UBE2G2, HT1080 AUP1 KO, compared with GFP-SCR. As to the method: Fig 7 G2BR^AUP1 protects UBE2G2 from degradation. (A) Indicated cells were assessed for steady state levels and turnover of endogenous UBE2G2 by CHX chase. (B) Transcript levels of endogenous UBE2G2 in AUP1 KO cells compared to HT1080 as determined by qPCR. Mean and standard deviation from three independent experiments is shown. […] (D) AUP1 KO cells were transfected with plasmids encoding MYC-UBE2G2 and GFP fusions of either a scrambled G2BR (SCR), G2BR^gp78, or G2BR^AUP1, and the turnover of UBE2G2 was assessed. (E) Relative abundance of gp78 (left panel) and AUP1 (right panel) in HT1080 cells was determined by resolving indicated amounts (in pmoles) of purified GST-gp78 (aa 429 to 611) or GST-AUP1 (aa 61 to 410) fusions alongside approximately 1 × 10^4 cellular equivalents of cell lysate and immunoblotting with gp78 or AUP1 antibodies. For each antibody, the amount of immunoreactivity in the lysate was compared to a defined quantity of a GST fusion protein of gp78 or AUP1 spanning the epitope recognized by the probing antibody. […] The data underlying this figure can be found in S1 and S8 Data. aa, amino acid; AUP1, ancient ubiquitous protein 1; CHX, cycloheximide; G2BR, UBE2G2 Binding Region; KO, knockout; qPCR, quantitative polymerase chain reaction; WT, wild type. […]

The target of assay [2] is T1, purified UBE2G2 (UniProt P60604 1-165, ^15N-labeled for NMR).
T1 construct: UBE2G2, purified recombinant protein used for ITC, FP, MST and NMR; also called apo-UBE2G2; ^15N-labeled UBE2G2
T1 sequence (looked up): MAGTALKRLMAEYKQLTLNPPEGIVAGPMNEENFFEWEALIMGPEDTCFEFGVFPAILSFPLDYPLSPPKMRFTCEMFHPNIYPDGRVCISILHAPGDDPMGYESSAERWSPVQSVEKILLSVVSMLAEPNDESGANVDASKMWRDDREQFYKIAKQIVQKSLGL
The assay is described as follows: ITC; 30 μM G2BR peptide injected into 3 μM UBE2G2 in the cell, PBS pH 7.4, 25°C, one set of sites model. The settings on record: both partners purified. (In general: Isothermal titration calorimetry measures the heat released or taken up as one component is titrated into another.)

Assay [3] has as its target T2, purified UBE2G2 (UniProt P60604 1-165, ^15N-labeled for NMR).
T2 chain: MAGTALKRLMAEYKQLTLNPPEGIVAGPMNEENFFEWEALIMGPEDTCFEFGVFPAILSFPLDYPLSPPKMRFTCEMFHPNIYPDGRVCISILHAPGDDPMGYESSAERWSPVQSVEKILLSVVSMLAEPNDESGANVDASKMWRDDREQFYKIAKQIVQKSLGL
Kind of assay: FP.

For assay [4], the target named is T2, purified UBE2G2. The assay is described as follows: MST.
Assay [5] deals with NHK (Null Hong Kong variant of alpha1-antitrypsin). The assay is described as follows: CHX chase: NHK degradation in HT1080 AUP1 KO cells. It is filed as cell-based, human. Particulars: full-length or deleted AUP1-FLAG re-expressed in HT1080 AUP1 KO cells, CHX 50 μg/mL. As to the method:
Fig 1 The G2BR of AUP1 is required for ERAD of NHK. (A) HT1080 or cells in which HRD1 was knocked out by CRISPR/Cas-9 (HRD1 KO) were transfected with plasmid encoding carboxyl-terminally HA-tagged NHK. Cells were treated with CHX for the indicated times to inhibit protein synthesis and NHK-HA degradation monitored by western blot. GFP and HSP60 serve as transfection efficiency and gel loading controls, respectively. (B) HT1080 or cells in which either AUP1 or gp78 was knocked out (AUP1 KO or gp78 KO) were transfected with NHK-HA and their degradation assessed. (C) AUP1 KO cells were transfected with NHK-HA and empty vector or plasmid encoding carboxyl-terminally FLAG-tagged AUP1 and NHK degradation assessed. (D) Indicated cells were transfected with plasmid encoding carboxyl-terminally MYC-tagged INSIG-1 and assessed for INSIG-1 degradation. (E) Schematic representation of AUP1 in the ER membrane and deletion mutants used in subsequent experiments. Amino acid residues are numbered spanning each domain. (F) AUP1 KO cells were transfected with NHK-HA and plasmids encoding the indicated FLAG-tagged AUP1 WT or deletion mutants and assessed for NHK degradation. (G) HEK293 (Parental) or HEK293 AUP1 KO cells were assessed for degradation of NHK-HA. (H) HEK293 AUP1 KO cells were assessed for NHK-HA degradation as in (F). Markers represent apparent molecular weight in kDa. The data underlying this figure can be found in S1 Data. aa, amino acid; AUP1, ancient ubiquitous protein 1; CHX, cycloheximide; ER, endoplasmic reticulum; ERAD, endoplasmic reticulum–associated degradation; G2BR, UBE2G2 Binding Region; KO, knockout; NHK, Null Hong Kong; WT, wild type.
(§1) Fig 6 Disruption of UBE2G2:G2BR^AUP1 interaction abrogates AUP1 function in cells. (A) GST or indicated GST-AUP1 fusions (aa 292 to 410, expression shown in Coomassie-stained gel) were immobilized on glutathione beads and binding to ^35S-UBE2G2 was assessed as in Fig 3A. Mutations include 2A (R382A/Q383A), 2E (R382E/Q383E), and 5E (R382E/Q383E/K390E/R398E/R400E). (B) AUP1 KO cells were transfected with NHK-HA and forms of full-length AUP1-FLAG with the indicated point mutations from (A) and NHK degradation assessed by CHX chase. (C) Binding assay performed as in (A) with AUP1 mutants predicted to disrupt hydrophobic interactions with UBE2G2. (D) Cellular assay performed as in (B) with AUP1-FLAG mutants that disrupt interactions with UBE2G2 in vitro in (C). The data underlying this figure can be found in S1 Data. aa, amino acid; AUP1, ancient ubiquitous protein 1; CHX, cycloheximide; G2BR, UBE2G2 Binding Region; KO, knockout; WT, wild type.
Fig 8 Recruitment of UBE2G2 to the ER membrane and activation by G2BR^AUP1 is required for ERAD. (A) HT1080 or AUP1 KO cells were transfected with NHK-HA and either empty vector or MYC-UBE2G2 and NHK turnover assessed by CHX chase. (B) AUP1 KO cells were transfected with NHK-HA and GFP fusions of either a scrambled G2BR sequence (SCR) or G2BR^AUP1 and NHK turnover and levels of endogenous UBE2G2 assessed. Luciferase and β-actin served as transfection efficiency and gel loading controls, respectively. (C) AUP1 KO cells were transfected with NHK-HA, MYC-UBE2G2, and either GFP-SCR or GFP-G2BR^AUP1 and NHK turnover assessed. (D) Membrane fractionation was performed on HT1080 or AUP1 KO cells transfected with either empty vector or AUP1-FLAG and localization of UBE2G2 assessed by western blotting. Localization of β-actin (cytosol) and Calnexin (ER membrane) were used as controls for cytosolic (C) and membrane (M) fractions, respectively. (E) Membrane fractionation of AUP1 KO cells transfected with either MYC-UBE2G2 or TM-UBE2G2. (F) HT1080 cells were transfected with TM-UBE2G2 and its localization assessed by confocal microscopy. Images shown are from an optical section after deconvolution. HA-tagged UBE2J2, an ER-localized E2, serves as an ER marker. […]

For assay [6], the target named is T3, UBE2G2 (Homo sapiens, UniProt P60604).
T3 construct: made in house
T3 sequence (P60604 1-165): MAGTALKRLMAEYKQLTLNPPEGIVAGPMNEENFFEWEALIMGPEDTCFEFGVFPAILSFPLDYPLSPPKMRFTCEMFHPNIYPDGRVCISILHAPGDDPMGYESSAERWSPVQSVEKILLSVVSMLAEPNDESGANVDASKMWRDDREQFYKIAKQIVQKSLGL
The assay is described as follows: GST pulldown of in vitro translated 35S-UBE2G2. It is filed as binding. Particulars: GST-AUP1 aa 292 to 410 on glutathione beads, ~3 pmol GST fusion, ~0.2 pmol E2, overnight 4°C, pH 7.4. How it is done:
Fig 3 The AUP1–UBE2G2 interaction is required for ERAD. (A) Equimolar amounts of GST-AUP1 (aa 292 to 410) or GST were immobilized on glutathione beads and binding to the indicated in vitro translated ^35S-labeled E2s was assessed. Left panel is 5% of input used for binding. E2s are referred to by their unique alpha-numeric designation (e.g., UBE2G1 and UBE2J1). (B) HT1080 or UBE2G2 KO cells were transfected with INSIG-1-MYC and degradation assessed by CHX chase. […] (D) Cells were transfected with NHK-MYC and HA-ubiquitin and ubiquitination of NHK assessed following proteasome inhibition and IP (right panel). Left panel is 10% of total cell lysate used for IP, indicating no discernable change in total ubiquitination. (E) Levels of endogenous HRD1 were monitored by CHX chase in the indicated cell types. (F) Ubiquitination of endogenous HRD1 was assessed following IP with HRD1 antiserum. Arrow in upper panel indicates migration of unmodified HRD1. Control immunoprecipitates using rabbit serum are shown for comparison. The data underlying this figure can be found in S1 Data. aa, amino acid; AUP1, ancient ubiquitous protein 1; CHX, cycloheximide; ERAD, endoplasmic reticulum–associated degradation; IP, immunoprecipitation; KO, knockout; WT, wild type.
as §1
In vitro translated ^35S methionine-labeled E2s were generated using the E. coli T7-S30 Extract System (Promega) and excess ^35S methionine was removed by desalting twice with Zeba Spin Desalting Columns (Thermo Scientific). GST fusion proteins were quantified by Coomassie blue staining. Moreover, 0.1 μg of GST fusion protein (approximately 3 pmol) was prebound to GS 4B (GE Healthcare) and then incubated with approximately 10^5 cpm of ^35S methionine-labeled E2 (approximately 0.2 pmol) in 200 μl Binding Buffer (25 mM Tris-HCl, pH 7.4, 50 mM NaCl, 5 mM DTT, 0.5% IGEPAL CA-630) overnight at 4°C. Beads were extensively washed in Binding Buffer, resolved on Bis/Tris polyacrylamide gels under reducing conditions, dried and visualized on a Typhoon FLA 7000 (GE Healthcare). Binding was quantified using ImageQuant Software.

As usually defined, the Kd is a measure of binding affinity in units of concentration. Low readings indicate tighter binding, high ones weaker binding.

Ends that are not written are not given here.

“GFP-G2BR^gp78: GFP fusion of gp78 aa 574 to 600”: in the assay with UBE2G2 [1], the “UBE2G2 degradation and steady state level” value was “protected UBE2G2 from degradation and increased the steady state level of this E2”.

B1: G2BR^AUP1 peptide (aa 378 to 404) (peptide)
peptide: SSWARQESLQERKQALYEYARRRFTER
notes: also called AUP1 G2BR; source: synthetic peptide (GenScript)
In the assay with purified UBE2G2 [2], B1 registered a Kd of 3.1 nM. That is a single-digit nanomolar value.

B2: FITC-labeled G2BR^gp78 peptide (peptide)
chain: WSADERQRMLVQRKDELLQQARKRFLNK
modifications: also: FITC label, position not given here
Regarding B2, the dissociation constant Kd was 15.1 nM with purified UBE2G2 [3] and 10 nM with purified UBE2G2 [4].

B3: G2BR^gp78 peptide (aa 574 to 600, with an added N-terminal Trp) (peptide)
peptide: WSADERQRMLVQRKDELLQQARKRFLNK
notes: N-terminal Trp residue added for peptide quantification; Natural stretch with one extra N-terminal Trp added for quantification; also called gp78 G2BR; source: synthetic peptide (GenScript)
With B3, the Kd with purified UBE2G2 [2] was 2.7 nM.

B4: L386D/Y394D: AUP1 point mutant; GST-AUP1 aa 292 to 410 in vitro, full-length AUP1-FLAG in cells (protein)
chain: SPDVQLATLAQRVKEVLPHVPLGVIQRDLAKTGCVDLTITNLLEGAVAFMPEDITKGTQSLPTASASKFPSSGPVTPQPTALTFAKSSWARQESDQERKQALDEYARRRFTERRAQEAD
modifications: left off: GST, end not stated, kept
notes: AUP1 point mutant; GST-AUP1 aa 292 to 410 in vitro, full-length AUP1-FLAG in cells
As to B4, the “restoration of NHK degradation” value in assay [5] is “failed to restore NHK degradation”. Further, in the assay with UBE2G2 [6], the “binding to UBE2G2” value is “eliminated detectable binding to UBE2G2”.

B5: FITC-labeled G2BR^AUP1 peptide (peptide)
chain: SSWARQESLQERKQALYEYARRRFTER
modifications: also: FITC label, position not given here
With B5, the Kd with purified UBE2G2 [3] is 7.1 nM; in the assay with purified UBE2G2 [4] it was 4.3 nM.
